Values of other authors in publication PMC4276913.

Target: Ubc13 (Homo sapiens) (UniProt P61088)
Chain of UniProt P61088 (P61088 whole entry): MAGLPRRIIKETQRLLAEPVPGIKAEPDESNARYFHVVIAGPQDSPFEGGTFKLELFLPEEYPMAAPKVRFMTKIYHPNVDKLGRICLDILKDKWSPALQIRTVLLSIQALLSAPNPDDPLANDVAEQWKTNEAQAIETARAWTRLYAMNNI

Kd: 49 nM
Substance: Mms2 (from UniProt Q15819)
